The values below come from publication doi:10.1101/2023.11.21.568018 (bioRxiv, 2023).

Where a chain is given by its changes, count along the chain named. Names may count otherwise.

The target of this assay is phospho-NEDD8 (human (cDNA from HEK393T cells), UniProt Q15843 1-76, phosphoserine at 65). As to the kind of experiment: crystal structure.

B1: human Parkin R0RBR (141-465) (domain or fragment)
chain: SIYNSFYVYCKGPCQRVQPGKLRVQCSTCRQATLTLTQGPSCWDDVLIPNRMSGECQSPHCPGTSAEFFFKCGAHPTSDKETSVALHLIATNSRNITCITCTDVRSPVLVFQCNSRHVICLDCFHLYCVTRLNDRQFVHDPQLGYSLPCVAGCPNSLIKELHHFRILGEEQYNRYQQYGAEECVLQMGGVLCPRPGCGAGLLPEPDQRKVTCEGGNGLGCGFAFCRECKEAYHEGECSAVFEASGTTTQAYRVDERAAEQARWEAASKETIKKTTKPCPRCHVPVEKNGGCMHMKCPQPQCRLEWCWNCGCEWNRVCMGDHWFDV
Turning to B1, the binding result is reported as “binds”.

B2: human Parkin R0RBR K211N (141-465) (domain or fragment)
chain: B1 chain with K71N
In the case of B2, the binding result was “binds”.
